The values below come from publication PMC6030200 (Scientific Reports, 2018).

This series concerns the molecule itself. The series can be described thus: negative-stain electron microscopy.

B1: HAdV-5 penton base protein, recombinant, soluble (natural protein)
chain: MRRAAMYEEGPPPSYESVVSAAPVAAALGSPFDAPLDPPFVPPRYLRPTGGRNSIRYSELAPLFDTTRVYLVDNKSTDVASLNYQNDHSNFLTTVIQNNDYSPGEASTQTINLDDRSHWGGDLKTILHTNMPNVNEFMFTNKFKARVMVSRLPTKDNQVELKYEWVEFTLPEGNYSETMTIDLMNNAIVEHYLKVGRQNGVLESDIGVKFDTRNFRLGFDPVTGLVMPGVYTNEAFHPDIILLPGCGVDFTHSRLSNLLGIRKRQPFQEGFRITYDDLEGGNIPALLDVDAYQASLKDDTEQGGGGAGGSNSSGSGAEENSNAAAAAMQPVEDMNDHAIRGDTFATRAEEKRAEAEAAAEAAAPAAQPEVEKPQKKPVIKPLTEDSKKRSYNLISNDSTFTQYRSWYLAYNYGDPQTGIRSWTLLCTPDVTCGSEQVYWSLPDMMQDPVTFRSTRQISNFPVVGAELLPVHSKSFYNDQAVYSQLIRQFTSLTHVFNRFPENQILARPPAPTITTVSENVPALTDHGTLPLRNSIGGVQRVTITDARRRTCPYVYKALGIVSPRVLSSRTF
notes: also called 5PB; source: Sf9 (baculovirus, pFastBac HT A), purified (Ni-NTA agarose, HiTrap Q-sepharose)
For B1, the stoichiometry N (in general, the number of molecules, sites or subunits per partner or assembly) amounted to 5.
